Results reported in paper PMC10197130, “Disulfide-Bond-Induced Structural Frustration and Dynamic Disorder in a Peroxiredoxin from MAS NMR” (Journal of the American Chemical Society, 2023).

B1: Tsa1 wild type (2-Cys peroxiredoxin from yeast) (enzyme, UniProt P34760 1-196, looked up)
chain: MVAQVQKQAPTFKKTAVVDGVFDEVSLDKYKGKYVVLAFIPLAFTFVCPTEIIAFSEAAKKFEEQGAQVLFASTDSEYSLLAWTNIPRKEGGLGPINIPLLADTNHSLSRDYGVLIEEEGVALRGLFIIDPKGVIRHITINDLPVGRNVDEALRLVEAFQWTDKNGTVLPCNWTPGAATIKPTVEDSKEYFEAANK
modifications: disulfide bond between Cys47 (CP) of one subunit and Cys170 (CR) of another subunit in the oxidized state (as purified or after H2O2); free thiols in the reduced state (TCEP or DTT)
notes: Tsa1, 2-Cys peroxiredoxin from yeast, wild type, plasmid pET19b-Tsa1 corresponding to UniProt entry P34760, codon-optimized; No removal of the His tag is described; Decamer of five dimers (ca. 216 kDa) at ambient temperature; also called Tsa1^WT; Tsa1^ox; source: E. coli BL21(DE3), purified (Ni2+-HisTrap, gel filtration on Superdex S200 increase); copies: 10

Legend:
Tsa1 S78D mutant (yeast) = assay: SEC; size-exclusion chromatography of the S78D mutant (Figure S2C)
[1] = target: the molecule itself; assay: methyl-detected diffusion-ordered NMR spectroscopy (DOSY); solution, deuterated Ile/Leu/Val methyl-labeled sample, series from 25 to 60 °C; temperatures above the midpoint at ca. 315 K
[2] = target: the molecule itself; assay: SEC-MALS; Superdex Increase 200 10/300 GL, phosphate buffer (PBS or 50 mM KPi KCl pH 7.4), RT (ca. 297 K); decamer also reinjected alone, with TCEP and after H2O2 treatment

| Molecule | stoichiometry N (Tsa1 S78D mutant (yeast)) | stoichiometry N [1] | stoichiometry N [2] |
| --- | --- | --- | --- |
| Tsa1 S78D mutant (enzyme) | 2 |  |  |
| B1 |  | 2 | 10 |
